Laboratory results reported in US20240343800A1 (Merck KGaA, published 2024).

Legend:
human ROR1 (on cells) [1] = molecular target: T1, human ROR1 (on cells) (human, UniProt Q01973 30-937); experiment: cell-based or functional assay
human ROR1 (on cells) [2] = molecular target: T1, human ROR1 (on cells); experiment: cell-based or functional assay; remark: listed apart in the source
human ROR1 (on cells) [3] = molecular target: T1, human ROR1 (on cells); experiment: cell-based or functional assay; remark: listed apart in the source
human ROR1 (on cells) [4] = molecular target: T1, human ROR1 (on cells); experiment: cell-based or functional assay; remark: listed apart in the source
[5] = molecular target: T2, human CD3 (on Jurkat T cells or human CD8+ T cells) (human, UniProt P07766 23-207; P09693 23-182; P04234 22-171; P20963 22-164); experiment: flow cytometry, human CD8+ T cells
T2 construct: Entries are printed with signal peptides; also called huCD3; CD3ε
T2 sequence (P07766 23-207 limits assumed, chain 1 of 4): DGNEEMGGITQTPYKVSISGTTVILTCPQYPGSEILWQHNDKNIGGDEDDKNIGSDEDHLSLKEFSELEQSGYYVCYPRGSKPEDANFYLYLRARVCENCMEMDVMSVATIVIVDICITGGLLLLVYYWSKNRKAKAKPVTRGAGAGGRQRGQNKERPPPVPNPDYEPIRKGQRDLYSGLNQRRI
T2 sequence (P09693 23-182 limits assumed, chain 2 of 4): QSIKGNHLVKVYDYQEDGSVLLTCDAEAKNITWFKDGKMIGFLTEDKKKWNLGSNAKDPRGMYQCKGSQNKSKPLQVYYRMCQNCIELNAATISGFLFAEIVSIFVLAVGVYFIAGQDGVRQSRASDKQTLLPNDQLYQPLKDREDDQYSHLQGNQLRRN
T2 sequence (P04234 22-171 limits assumed, chain 3 of 4): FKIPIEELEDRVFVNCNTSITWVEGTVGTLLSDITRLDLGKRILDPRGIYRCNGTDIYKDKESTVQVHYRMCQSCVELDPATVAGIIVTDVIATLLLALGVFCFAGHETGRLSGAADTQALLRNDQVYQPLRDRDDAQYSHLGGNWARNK
T2 sequence (P20963 22-164 limits assumed, chain 4 of 4): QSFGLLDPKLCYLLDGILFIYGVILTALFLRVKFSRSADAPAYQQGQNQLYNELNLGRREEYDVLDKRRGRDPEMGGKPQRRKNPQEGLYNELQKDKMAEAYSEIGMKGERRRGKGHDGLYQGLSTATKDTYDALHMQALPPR
Experimental: (§1) After 15-minutes of incubation at room temperature, the cells were washed twice with 200 μL of PBS by centrifugation at 500×g for 5 minutes at room temperature and resuspended in […] of 10% goat serum in BD staining buffer (BD Biosciences, Cat No: 554657). […] The plates were then covered with foil to avoid direct light and incubated for 60 minutes at 4° C. […] After incubating for 30 minutes at 4° C., the cells were washed twice with 200 μL of PBS by centrifugation at 500×g for 5 minutes at room temperature and resuspended into 100 μL of fixation buffer (BioLegend, Cat No: 420801). The samples were then analyzed on a flow cytometer for binding signal using FlowJo software. ROR and CD3 binding EC₅₀s (concentration vs mean fluorescence intensity (MFI)) for reference molecules and test bispecific TCEs were obtained using 4-parameter non-linear regression curve fitting in GraphPad Prism.

[6] = molecular target: T3, cynomolgus CD3 (on cynomolgus pan-T cells) (cynomolgus, UniProt Q95LI5 22-198); experiment: flow cytometry, cynomolgus pan-T cells
T3 construct: whole, on cells
T3 sequence (Q95LI5 22-198): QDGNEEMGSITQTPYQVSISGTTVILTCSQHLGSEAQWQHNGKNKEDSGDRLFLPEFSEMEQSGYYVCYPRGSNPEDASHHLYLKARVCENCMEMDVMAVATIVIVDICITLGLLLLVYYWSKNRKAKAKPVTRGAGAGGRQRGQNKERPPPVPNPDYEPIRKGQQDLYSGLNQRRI
Experimental: as §1

human ROR1 (on cells) [7] = molecular target: T1, human ROR1 (on cells); experiment: flow cytometry, ROR1+ MDA-MB-231 cells
Experimental: as §1

[8] = molecular target: T4, mouse ROR1 (on 4T1 cells engineered to overexpress it) (mouse, UniProt Q9Z139 30-937); experiment: flow cytometry, 4T1 cells overexpressing mouse ROR1
T4 construct: whole, on cells; also called muROR1; mROR1
Experimental: as §1

[9] = molecular target: T4, mouse ROR1 (on 4T1 cells engineered to …); experiment: flow cytometry; reference: human ROR1 on MDA-MB-231 cells

B1: 82H02 TCE #4 (sequence optimized 82H02 bispecific TCE in Format 1A, low ROR1 / low CD3 affinity) (bispecific antibody)
heavy 1: EVQLVESGGGLVQPGGSLKLSCAASGFTFNTYAMNWVRQASGKGLEWVGRIRSKYNNYATYYADSVKGRFTISRDDSKNTLYLQMNSLKTEDTAVYYCVRHGNFGNSYVSWFAYWGQGTMVTVSSASTKGPSVFPLAPSSKSTSGGTAALGCLVKDYFPEPVTVSWNSGALTSGVHTFPAVLQSSGLYSLSSVVTVPSSSLGTQTYICNVNHKPSNTKVDKKVEPKSCDKTHTCPPCPAPEAAGGPSVFLFPPKPKDTLMISRTPEVTCVVVDVSHEDPEVKFNWYVDGVEVHNAKTKPREEQYNSTYRVVSVLTVLHQDWLNGKEYKCKVSNKALGAPIEKTISKAKGQPFRPEVHLLPPSREEMTKNQVSLTCLARGFYPKDIAVEWESNGQPENNYKTTPSRQEPSQGTTTFAVTSKLTVDKSRWQQGNVFSCSVMHEALHNHYTQKTISLSPGK
heavy 2: EIVLTQSPATLSLSPGERATLSCRASQSVSSYLAWYQQKPGQAPRLLIYDASNRATGIPARFSGSGSGTDFTLTISSLEPEDFAVYYCQQRSNWPPFTFGQGTRLEIKGGGGSGGGGSGGGGSGGGGSEVQLLESGGGLVQPGGSLRLSCAASGFTFTSYAMSWVRQAPGKGLEWVSTISGSGGGTYYTDSVKGRFTISRDNSKNTLYLQMNSLRAEDTAVYYCAQGSSIFDYWGQGTLVTVSSEPKSSDKTHTCPPCPAPEAAGGPSVFLFPPKPKDTLMISRTPEVTCVVVDVSHEDPEVKFNWYVDGVEVHNAKTKPREEQYNSTYRVVSVLTVLHQDWLNGKEYKCKVSNKALGAPIEKTISKAKGQPREPQVYTLPPPSEELALNELVTLTCLVKGFYPSDIAVEWLQGSQELPREKYLTWAPVLDSDGSFFLYSILRVAAEDWKKGDTFSCSVMHEALHNHYTQKSLDRSPGKGGGGSGGGGSGGGGSGGGGSEIVLTQSPATLSLSPGERATLSCRASQSVSSYLAWYQQKPGQAPRLLIYDASNRATGIPARFSGSGSGTDFTLTISSLEPEDFAVYYCQQRSNWPPFTFGQGTRLEIKGGGGSGGGGSGGGGSGGGGSEVQLLESGGGLVQPGGSLRLSCAASGFTFTSYAMSWVRQAPGKGLEWVSTISGSGGGTYYTDSVKGRFTISRDNSKNTLYLQMNSLRAEDTAVYYCAQGSSIFDYWGQGTLVTVSS
light: QTVVTQEPSLTVSPGGTVTLTCASSTGAVTTSNYANWVQQKPGQAPRALIGGTNKRAPGTPARFSGSLLGGKAALTLSGVQPEDEAEYYCALWYSNLWVFGGGTKLTVLGQPKAAPSVTLFPPSSEELQANKATLVCLISDFYPGAVTVAWKADSSPVKAGVETTTPSKQSNNKYAASSYLSLTPEQWKSHRSYSCQVTHEGSTVEKTVAPTECS
notes: also called 82H02 #4; 82H02 VL1.06x1F3.5-VH1.01-VL1.01
- TDCC EC50, PBMCs: MDA-MB-231 (human ROR1 (on cells) [1]): 168000 pM
- IFNγ release EC50, PBMCs: MDA-MB-231 (human ROR1 (on cells) [2]): 509000 pM
- Max IFNγ, PBMCs: MDA-MB-231 (human ROR1 (on cells) [2]): 764 pg/mL
- TDCC AUC, PBMCs: MDA-MB-231-0.2 (human ROR1 (on cells) [3]): 25900
- TDCC AUC, PBMCs: MDA-MB-231-0.4 (human ROR1 (on cells) [3]): 41900
- TDCC AUC, PBMCs: MDA-MB-231-0.6 (human ROR1 (on cells) [3]): 46300
- TDCC AUC, PBMCs: MDA-MB-231-1.3 (human ROR1 (on cells) [3]): 58900
- TDCC AUC, PBMCs: MDA-MB-231-7 (human ROR1 (on cells) [3]): 68300
- TDCC EC50, PBMCs: MDA-MB-231-0.2 (human ROR1 (on cells) [3]): 22.3 pM
- TDCC EC50, PBMCs: MDA-MB-231-0.4 (human ROR1 (on cells) [3]): 19.6 pM
- TDCC EC50, PBMCs: MDA-MB-231-0.6 (human ROR1 (on cells) [3]): 15.2 pM
- TDCC EC50, PBMCs: MDA-MB-231-1.3 (human ROR1 (on cells) [3]): 11.2 pM
- TDCC EC50, PBMCs: MDA-MB-231-7 (human ROR1 (on cells) [3]): 6.53 pM
- TDCC Emax, PBMCs: MDA-MB-231-0.2 (human ROR1 (on cells) [3]): 27.4%
- TDCC Emax, PBMCs: MDA-MB-231-0.4 (human ROR1 (on cells) [3]): 45%
- TDCC Emax, PBMCs: MDA-MB-231-0.6 (human ROR1 (on cells) [3]): 51.5%
- TDCC Emax, PBMCs: MDA-MB-231-1.3 (human ROR1 (on cells) [3]): 60.4%
- TDCC Emax, PBMCs: MDA-MB-231-7 (human ROR1 (on cells) [3]): 70.3%
- IFNγ release AUC, PBMCs: MDA-MB-231-0.2 (human ROR1 (on cells) [4]): 1.09e+06
- IFNγ release AUC, PBMCs: MDA-MB-231-0.4 (human ROR1 (on cells) [4]): 1.42e+06
- IFNγ release AUC, PBMCs: MDA-MB-231-0.6 (human ROR1 (on cells) [4]): 8.23e+06
- IFNγ release AUC, PBMCs: MDA-MB-231-1.3 (human ROR1 (on cells) [4]): 4.11e+06
- IFNγ release AUC, PBMCs: MDA-MB-231-7 (human ROR1 (on cells) [4]): 4.14e+06
- IFNγ release EC50, PBMCs: MDA-MB-231-0.2 (human ROR1 (on cells) [4]): 280 pM
- IFNγ release EC50, PBMCs: MDA-MB-231-0.4 (human ROR1 (on cells) [4]): 160 pM
- IFNγ release EC50, PBMCs: MDA-MB-231-0.6 (human ROR1 (on cells) [4]): 121 pM
- IFNγ release EC50, PBMCs: MDA-MB-231-1.3 (human ROR1 (on cells) [4]): 35.1 pM
- IFNγ release EC50, PBMCs: MDA-MB-231-7 (human ROR1 (on cells) [4]): 30.9 pM
- IFNγ release Emax, PBMCs: MDA-MB-231-0.2 (human ROR1 (on cells) [4]): 1730%
- IFNγ release Emax, PBMCs: MDA-MB-231-0.4 (human ROR1 (on cells) [4]): 1840%
- IFNγ release Emax, PBMCs: MDA-MB-231-0.6 (human ROR1 (on cells) [4]): 2780%
- IFNγ release Emax, PBMCs: MDA-MB-231-1.3 (human ROR1 (on cells) [4]): 4560%
- IFNγ release Emax, PBMCs: MDA-MB-231-7 (human ROR1 (on cells) [4]): 4480%
- EC50 [5]: 20400 pM
- EC50 [6]: 27700 pM
- EC50 (human ROR1 (on cells) [7]): 76500 pM
- EC50 [8]: 496000 pM
- fold difference in apparent ROR1 binding affinity between human and mouse ROR1 [9]: ~6.5 fold
